Assay results published in PMC5789857 (Nature Communications, 2018).

Target: TBEV envelope protein (E-protein), strain Hypr, in the purified virion (tick-borne encephalitis virus, strain …, UniProt Q01299)
Experiment: cell-based or functional assay

B1: Fab fragment of neutralizing mouse monoclonal antibody 19/1786 (Fab, V domains shown)
VH: EVKLEESGGGLVQPGGSLKLSCAASGFTFSSYGMSWVRQTPDKRLELVAATNSDGDSTYYPDSVKGRFTISRDRAKNTLYLQMSSLKSEDTAMYYCTRVLYDYDGEFAYWGQGTLVTVSA
VL: DIVMTQSQKFMSTSVGDRVTVTCKASQNVGTNVAWYQQKPGQSPKGLIYSASYRYSGVPDRFIGSGSGTDFTLTISNVQSGDLAEYFCQQYNNHPLTFGAGTKLELK
  neutralisation of TBEV (cytolysis of porcine kidney stable cells), EC50: 35 µg/mL
